Results on one substance are retold here after patent US20140308301A1.

Assay [1] deals with human CD44 (human) (UniProt P16070). Nature of the assay: cell-based or functional assay.
For assay [2] the target is unchanged. Briefly: flow cytometry, Alexa647-RG7356 on CD19+CD5+ CLL B cells (n=59). (Flow cytometry measures light scatter and fluorescence of single cells or particles in a stream.)
Assay [3] has the same target. Briefly: flow cytometry, Alexa647-RG7356 on CLL B cells with ZAP-70 expression.
Assay [4] has the same target. Nature of the assay: flow cytometry, Alexa647-RG7356 on CLL B cells with mutated IGVH gene.
Assay [5] has the same target. Nature of the assay: flow cytometry, Alexa647-RG7356 on CLL B cells with unmutated IGVH gene.
The target is the same in assay [6]. Briefly: flow cytometry, Alexa647-RG7356 on CD19+ normal B cells of healthy adults (n=8).
Assay [7] has the same target. Nature of the assay: flow cytometry, Alexa647-RG7356 on CLL B cells with low or no ZAP-70 expression.

Turning to “humanized anti-CD44 monoclonal antibody (RG7356, Roche)”, in the assay with human CD44 (human) [1], the internalization of cell surface CD44 (reduction of MFI of Alexa647-conjugated RG7356 on CLL cells at 37 C, flow cytometry) was more than 40%. In addition, the median MFIR (MFI of CD44 mAb divided by MFI of control mAb) in the assay with human CD44 (human) [2] came out at 132; in the assay with human CD44 (human) [3], 161; with human CD44 (human) [4], 118; with human CD44 (human) [5], 161; with human CD44 (human) [6], 112; with human CD44 (human) [7], 119.
